Measurements taken from paper PMC9098846, “Molecular insights into biogenesis of glycosylphosphatidylinositol anchor proteins” (Nature Communications, 2022).

Target: T1, PIGT, subunit of the human GPI transamidase (GPI-T) (human) (UniProt Q969N2)
T1 sequence (chain, disulfide bond from C182 to PIGK C92): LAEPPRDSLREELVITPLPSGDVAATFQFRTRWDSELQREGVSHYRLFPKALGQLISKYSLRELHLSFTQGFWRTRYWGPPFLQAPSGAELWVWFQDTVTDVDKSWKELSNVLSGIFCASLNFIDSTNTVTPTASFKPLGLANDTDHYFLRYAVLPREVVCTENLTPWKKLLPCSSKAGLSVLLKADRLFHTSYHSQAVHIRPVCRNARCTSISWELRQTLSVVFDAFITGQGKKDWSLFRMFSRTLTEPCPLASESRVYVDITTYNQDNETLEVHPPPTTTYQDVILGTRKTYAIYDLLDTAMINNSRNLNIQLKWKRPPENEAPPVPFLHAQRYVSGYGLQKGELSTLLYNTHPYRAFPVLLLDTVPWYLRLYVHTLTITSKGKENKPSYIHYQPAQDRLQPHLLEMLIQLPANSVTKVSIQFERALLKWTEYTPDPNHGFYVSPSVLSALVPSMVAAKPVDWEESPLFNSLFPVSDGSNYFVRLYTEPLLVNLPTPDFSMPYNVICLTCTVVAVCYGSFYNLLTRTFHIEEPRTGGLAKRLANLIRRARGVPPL

B1: PIGK C92A (enzyme)
chain: SHIEDQAEQFFRSGHTNNWAVLVCTSRFWFNYRHVANTLSVYRSVKRLGIPDSHIVLMLADDMAANPRNPKPATVFSHKNMELNVYGDDVEVDYRSYEVTVENFLRVLTGRIPPSTPRSKRLLSDDRSNILIYMTGHGGNGFLKFQDSEEITNIELADAFEQMWQKRRYNELLFIIDTCQGASMYERFYSPNIMALASSQVGEDSLSHQPDPAIGVHLMDRYTFYVLEFLEEINPASQTNMNDLFQVCPKSLCVSTPGHRTDLFQRDPKNVLITDFFGSVRKVEITTETIKLQQDSEIMESSYKEDQMDEKLMEPLKYAEQLPVAQIIHQKPKLKDWHPPGGFILGLWALIIMVFFKTYGIKHMKFIF
apparent GPI-T activity: surface staining of the reporter GPI-AP CD59 on PIGK knockout cells by flow cytometry, compared to the wild-type PIGK (% of wild-type): 61
